What all share (format): cell-based
The test system of one data set is Jurkat cells. Put plainly: Anti-phosphotyrosine capture assay of tyrosine kinase activity after SDF-1α stimulation for various times. Conditions: 37° C., 100 nM SDF-1α, various time intervals, FIG. 2. As to the method:
(§1) 96-well polystyrene plates were coated with an anti-phosphotyrosine antibody, pY99 (Santa Cruz Biotech, Inc., Santa Cruz, Calif.), by adding 200 μl of an antibody solution in Tris buffered saline (TBS) pH 8.0 at a concentration of 2.5 μg/ml. The plates were incubated for three hours at room temperature. The plates were then rinsed and 300 μl of blocking solution, sold under the trademark, SUIPERBLOCK® (Pierce Chemical, Rockford, Ill.) was added and the plates were incubated for two hours. At this point, the plates may be stored at 4° C. for up to two weeks. […]
To assay the cell lysates for kinase activity, the plate was thawed at 37° C., and 100 μl of tris buffered saline with 0.1% Tween 20 was added to each well. […] Relative phosphorylated protein levels were detected by adding 100 μl of a 0.2 μg/ml solution of europium-chelate labeled anti-phosphotyrosine antibody in tris buffered saline (pH 8.0) to each well and allowing the plate to incubate for one hour with shaking. […] Enhancement Solution for measuring Eu^3+ (E. G. & G. Wallac, Turku, FI) was added and the amount of labeled antibody bound was measured using a time-resolved fluorescence plate reader, for example, a Wallac 1420, or Victor MLC (Wallac Oy, Turku, FI). […]

For the next data set, the system named is Daudi B cells. Put plainly: Anti-phosphotyrosine capture assay (time-resolved fluorescence) of tyrosine phosphorylation in stimulated B-cells. Conditions: ligand 100 ng/ml, 15 minutes, FIG. 1. As to the method:
as §1
(§2) To assay the cell lysates for kinase activity, the plate was thawed at 37° C., and 100 μl of tris buffered saline with 0.1% Tween 20 was added to each well. […] Relative phosphorylated protein levels were detected by adding 100 μl of a 0.2 μg/ml solution of europium-chelate labeled anti-phosphotyrosine antibody in tris buffered saline (pH 8.0) to each well and allowing the plate to incubate for one hour with shaking. […] Enhancement Solution for measuring Eu^3+ (E. G. & G. Wallac, Turku, FI) was added and the amount of labeled antibody bound was measured using a time-resolved fluorescence plate reader, for example, a Wallac 1420, or Victor MLC (Wallac Oy, Turku, FI).

The subject of a further data set is Ramos B cells. The description is as above. As to conditions: ligand 100 ng/ml, 15 minutes, FIG. 1. As to the method:
as §1, §2

Consider SDF-1α, for which the “tyrosine kinase activity (fluorescence) as time increases” value in the data set with Jurkat cells is “decrease in kinase activity”.

B1: IL-4: IL-4, used as a stimulus for Daudi or Ramos B-cells (protein, UniProt P05112 25-153, looked up)
Interleukin-4: HKCDITLQEIIKTLNSLTEQKTLCTELTVTDIFAASKNTTEKETFCRAATVLRQFYSHHEKDTRCLGATAQQFHRHKQLIRFLKRLDRNLWGLAGLNSCPVKEANQSTLENFLERLKTIMREKYSKCSS
On to B1, for which the “changes in tyrosine phosphorylation on stimulation” value in the data set with Daudi B cells and in the data set with Ramos B cells was “not significantly” each time.
